Results: article PMC9798103

Target: F-actin (polymerised from Ca2+-ATP G-actin of rabbit skeletal muscle) (rabbit) (UniProt P68135)
Experiment: co-sedimentation

Kd: 14 µM
Substance: N-terminal half of RHGF-1 without the PDZ domain (RHGF-1-N-ΔPDZ) (domain or fragment)
